The values below come from article PMC9971246, “The activation mechanism and antibody binding mode for orphan GPR20” (Cell Discovery, 2023).

This experiment has as its target T1, N-terminal BRIL-fused wild-type human GPR20 (human, UniProt Q99678).
T1 construct: human GPR20, wild type, UniProt Q99678; codon-optimized gene in pFastBac1; Construct order: haemagglutinin signal peptide, Flag tag, BRIL, GPR20, HRV 3C protease site, 10x His; No cleavage with HRV 3C is described; BRIL is written as a carrier under tags, not as a part; also called WT GPR20; ligand-free GPR20; source: Trichuplusia ni Hi5 insect cells (baculovirus), co-expressed with DNGαi and …
In words: cryo-EM structure; GPR20-Gi-Fab046 complex, pair of Fab046 and GPR20; TALON eluate (GPR20-Gi complex) mixed with purified Fab046 1:1.5 for 6 h, SEC in 20 mM HEPES pH 7.5, 100 mM NaCl, LMNG/GDN/CHS, 100 μM TCEP; 3.22 Å. The following applies: both partners purified.

T1 sequence (Q99678 whole entry, the tested form may be a part): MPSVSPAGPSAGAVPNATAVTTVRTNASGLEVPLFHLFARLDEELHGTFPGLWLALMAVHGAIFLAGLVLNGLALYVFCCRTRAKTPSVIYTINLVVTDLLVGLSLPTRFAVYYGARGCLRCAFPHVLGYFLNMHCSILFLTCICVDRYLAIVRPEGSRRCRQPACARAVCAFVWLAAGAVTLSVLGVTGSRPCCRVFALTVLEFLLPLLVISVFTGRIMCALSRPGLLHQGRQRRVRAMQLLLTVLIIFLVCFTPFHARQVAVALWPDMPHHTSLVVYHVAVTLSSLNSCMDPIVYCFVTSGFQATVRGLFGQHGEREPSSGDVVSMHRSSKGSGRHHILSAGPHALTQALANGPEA

B1: Fab046, Fab fragment of the anti-GPR20 antibody Ab046 (Fab, V domains shown)
VH: QVQLQQSGAELAKPGSSVKISCKASGYTFTSYYISWIKQTTGQGLKYIGFINPGSGHTNYNEKFKGKATLTVDKSSSTAFMQLSSLTPDDSAIYYCARGAGGFLRIITKFDYWGQGVMVTVSS
VL: DTVLTQSPALAVSLGQRVTISCRASKSVSTYIHWYQQRSGQQPKLLIYSASNLESGVPSRFSGSGSGTDFTLTIDPVEPDDIANYYCQQINELPYTFGAGTKLELK
notes: modelled in the deposited structures PDB 8HS2 (VH + CH1) and PDB 8HSC (VH); modelled in the deposited structures PDB 8HS2 (intact light chain) and PDB 8HSC (VL); also called IgG046; source: Trichuplusia ni Hi5 insect cells (baculovirus, pFastBacDual), from the supernatant, purified (Ni-NTA, SEC)
Turning to B1, the binding result was “binds”.
